In the FLAb antibody collection (doi:10.1101/2023.12.08.570889):
Residue numbers refer to the chain shown, from its start. One block for each binder: values may come before it.

Tests used:
TNFRSF9, Q07011 = assay: Kd (SPR)
IL36R = assay: Kd (SPR)

Kd (TNFRSF9, Q07011): 0.295 µM
B1: unnamed (protein)
chain 1: EVQLVQSGAEVKKPGESLRISCKGSGYSFSTYWISWVRQMPGKGLEWMGKIYPGDSYTNYSPSFQGQVTISADKSISTAYLQWSSLKASDTAMYYCSRGSGIFDYWGQGTLVTVSS
chain 2: SYELTQPPSVSVSPGQTASITCSGDNIGDQYAHWYQQKPGQSPVLVIYQDKNRPSGIPERFSGSNSGNTATLTISGTQAMDEADYYCATYTGFGSLAVFGGGTKLTVL

Kd (TNFRSF9, Q07011): 0.175 µM
B2: unnamed (protein)
chain 1: B1 chain 1 with S97A, S100I, I102L
chain 2: B1 chain 2

Kd (TNFRSF9, Q07011): 0.158 µM
B3: unnamed (protein)
chain 1: B1 chain 1 with S97A, S100V
chain 2: B1 chain 2

Kd (TNFRSF9, Q07011): 0.0956 µM
B4: unnamed (protein)
chain 1: B1 chain 1 with S97A, S100T, I102L
chain 2: B1 chain 2

Kd (TNFRSF9, Q07011): 0.153 µM
B5: unnamed (protein)
chain 1: B1 chain 1 with S97A, S100V, I102L
chain 2: B1 chain 2

Kd (TNFRSF9, Q07011): 0.225 µM
B6: unnamed (protein)
chain 1: B1 chain 1 with S97T, I102L
chain 2: B1 chain 2

Kd (TNFRSF9, Q07011): 0.141 µM
B7: unnamed (protein)
chain 1: B1 chain 1 with S97T, S100V, I102L
chain 2: B1 chain 2

Kd (TNFRSF9, Q07011): 0.128 µM
B8: unnamed (protein)
chain 1: B1 chain 1 with S97A, S100I
chain 2: B1 chain 2

Kd (TNFRSF9, Q07011): 0.0962 µM
B9: unnamed (protein)
chain 1: B1 chain 1 with S97T, S100Y, I102V
chain 2: B1 chain 2

Kd (TNFRSF9, Q07011): 0.0923 µM
B10: unnamed (protein)
chain 1: B1 chain 1 with S97T, S100V
chain 2: B1 chain 2

Kd (TNFRSF9, Q07011): 0.122 µM
B11: unnamed (protein)
chain 1: B1 chain 1 with S97A, S100W, I102V
chain 2: B1 chain 2

Kd (TNFRSF9, Q07011): 0.13 µM
B12: unnamed (protein)
chain 1: B1 chain 1 with S100Y, I102V
chain 2: B1 chain 2

Kd (IL36R): 0.011 µM
B13: unnamed (protein)
chain 1: QVQLVQSGAEVKKPGASVKVSCKASGYTFTSNWIHWVKQAPGQGLEWMGEIYPGNSNTNYNENFRNKVTMTVDTSISTAYMELSRLRSDDTAVYYCTRVSYGEPYFDYWGQGTLVTVSS
chain 2: QIVLTQSPGTLSLSPGERATMTCTASSSVSSSYFHWYQQKPGQAPRLWIYRTSRLASGVPDRFSGSGSGTDFTLTISRLEPEDAATYYCHQFHRSPLTFGAGTKLEIK

Kd (IL36R): 0.00276 µM
B14: unnamed (protein)
chain 1: B13 chain 1 with N32S, S100Q
chain 2: B13 chain 2

Kd (IL36R): 0.00103 µM
B15: unnamed (protein)
chain 1: B13 chain 1 with N32S, S100R, Y101F
chain 2: B13 chain 2

Kd (IL36R): 0.000757 µM
B16: unnamed (protein)
chain 1: B13 chain 1 with N32A, S100R
chain 2: B13 chain 2

Kd (IL36R): 0.00116 µM
B17: unnamed (protein)
chain 1: B13 chain 1 with T28S, N32S, S100Q
chain 2: B13 chain 2

Kd (IL36R): 0.0146 µM
B18: unnamed (protein)
chain 1: B13 chain 1 with S100R
chain 2: B13 chain 2

Kd (IL36R): 0.000933 µM
B19: unnamed (protein)
chain 1: B13 chain 1 with T28S, N32S, S100R
chain 2: B13 chain 2

Kd (IL36R): 0.00135 µM
B20: unnamed (protein)
chain 1: B13 chain 1 with S100R, E103Y
chain 2: B13 chain 2
